# Source: article PMC9686918 (2022)
# Key:
# [1] = target: T1, Methylglyoxal-modified human serum albumin (HSA-MG) (Homo sapiens, UniProt P02768); assay: peroxidase activity inhibition (ABTS, H2O2 varied)
# [2] = target: T1, Methylglyoxal-modified human serum …; assay: chlorinating activity inhibition (celestine blue B, NaCl varied)
# [3] = target: T1, Methylglyoxal-modified human serum …; assay: chlorinating activity inhibition (celestine blue B, H2O2 varied)
# [4] = target: T1, Methylglyoxal-modified human serum …; assay: peroxidase activity inhibition (ABTS varied)
# [5] = target: T1, Methylglyoxal-modified human serum …; assay: ELISA (Scatchard plot)
binder,measurement,setting,value
"Myeloperoxidase (protein, methylglyoxal-modified HSA) not shown",Ki,[1],840 nM
same,Ki,[2],940 nM
same,Ki,[3],800 nM
same,Ki,[4],1080 nM
same,Kd,[5],1.5 nM
